# According to patent publication US20150344570A1 (published 2015):
# T1: FcγRIIb extracellular domain with C-terminal His tag (human, UniProt P31994 43-217)
# T1 construct: extracellular domain; also called 2b; FcgRIIb; not shown: His tag at the C terminus
# T1 sequence (looked up): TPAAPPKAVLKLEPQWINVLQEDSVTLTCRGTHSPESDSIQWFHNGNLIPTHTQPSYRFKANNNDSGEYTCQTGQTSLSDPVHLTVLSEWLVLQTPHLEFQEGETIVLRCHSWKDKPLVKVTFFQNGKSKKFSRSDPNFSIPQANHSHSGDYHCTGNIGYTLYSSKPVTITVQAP
# T2: FcγRIIb (human, UniProt P31994 43-217)
# T2 construct: extracellular domain; Soluble extracellular domain with C-terminal His tag, used as analyte in Biacore; also called FcgRIIb; 2b; not shown: His tag attached to the C terminus
# T2 sequence (looked up): T1 sequence (looked up)
# B1: GpH7-A5/GpH7-B3 variant Y300_19Q/GpL16-k0 (antibody, human IgG1, kappa)
# heavy 1: not shown
# heavy 2: not shown
# light: DIVMTQSPLSLPVTPGEPASISCQASESLVHSNRNTYLHWYLQKPGQSPQLLIYKVSNRFSGVPDRFSGSGSGTDFTLKISRVEAEDVGVYYCSQNTHVPPTFGQGTKVEIERTVAAPSVFIFPPSDEQLKSGTASVVCLLNNFYPREAKVQWKVDNALQSGNSQESVTEQDSKDSTYSLSSTLTLSKADYEKHKVYACEVTHQGLSSPVTKSFNRGEC
# notes: IgG1, anti-glypican-3; also called He Ab
# B2: GpH7-A5/GpH7-B3 variant S298_08L/GpL16-k0 (antibody, human IgG1, kappa)
# heavy 1: not shown
# heavy 2: not shown
# light: B1 light
# notes: as for B1
# B3: GpH7-A5/GpH7-B3 variant P238_20W/GpL16-k0 (antibody, human IgG1, kappa)
# heavy 1: not shown
# heavy 2: not shown
# light: B1 light
# notes: as for B1
# B4: GpH7-A5/GpH7-B3 variant A327_01G/GpL16-k0 (antibody, human IgG1, kappa)
# heavy 1: not shown
# heavy 2: not shown
# light: B1 light
# notes: Heterodimerized anti-glypican-3 IgG1; alteration in the GpH7-B3 chain only; also called He Ab
# B5: GpH7-A5/GpH7-B3 variant A327_18N/GpL16-k0 (antibody, human IgG1, kappa)
# heavy 1: not shown
# heavy 2: not shown
# light: B1 light
# notes: as for B4
# B6: GpH7-A5/GpH7-B3 variant L234_20W/GpL16-k0 (antibody, human IgG1, kappa)
# heavy 1: not shown
# heavy 2: not shown
# light: B1 light
# notes: as for B4
# B7: GpH7-A5/GpH7-B3 variant L328_13S/GpL16-k0 (antibody, human IgG1, kappa)
# heavy 1: not shown
# heavy 2: not shown
# light: B1 light
# notes: as for B4
# B8: GpH7-A5/GpH7-B3 variant L328_02A/GpL16-k0 (antibody, human IgG1, kappa)
# heavy 1: not shown
# heavy 2: not shown
# light: B1 light
# notes: as for B4
# B9: GpH7-A5/GpH7-B3 variant N325_08L/GpL16-k0 (antibody, human IgG1, kappa)
# heavy 1: not shown
# heavy 2: not shown
# light: B1 light
# notes: as for B4
# B10: GpH7-A5/GpH7-B3 variant G236_10E/GpL16-k0 (antibody, human IgG1, kappa)
# heavy 1: not shown
# heavy 2: not shown
# light: B1 light
# notes: as for B4
# B11: GpH7-A5/GpH7-B3 variant N325_04F/GpL16-k0 (antibody, human IgG1, kappa)
# heavy 1: not shown
# heavy 2: not shown
# light: B1 light
# notes: as for B4
# B12: GpH7-A5/GpH7-B3 variant L235_04F/GpL16-k0 (antibody, human IgG1, kappa)
# heavy 1: not shown
# heavy 2: not shown
# light: B1 light
# notes: as for B4
# B13: GpH7-A5/GpH7-B3 variant N325_03V/GpL16-k0 (antibody, human IgG1, kappa)
# heavy 1: not shown
# heavy 2: not shown
# light: B1 light
# notes: as for B4
# B14: GpH7-A5/GpH7-B3 variant L328_07I/GpL16-k0 (antibody, human IgG1, kappa)
# heavy 1: not shown
# heavy 2: not shown
# light: B1 light
# notes: as for B4
# B15: GpH7-A5/GpH7-B3 variant G237_13S/GpL16-k0 (antibody, human IgG1, kappa)
# heavy 1: not shown
# heavy 2: not shown
# light: B1 light
# notes: as for B4
# B16: GpH7-A5/GpH7-B3 variant N325_06M/GpL16-k0 (antibody, human IgG1, kappa)
# heavy 1: not shown
# heavy 2: not shown
# light: B1 light
# notes: as for B4
# B17: GpH7-A5/GpH7-B3 variant N325_07I/GpL16-k0 (antibody, human IgG1, kappa)
# heavy 1: not shown
# heavy 2: not shown
# light: B1 light
# notes: as for B4
# B18: GpH7-A5/GpH7-B3 variant L328_06M/GpL16-k0 (antibody, human IgG1, kappa)
# heavy 1: not shown
# heavy 2: not shown
# light: B1 light
# notes: as for B4
# B19: GpH7-A5/GpH7-B3 variant N325_01G/GpL16-k0 (antibody, human IgG1, kappa)
# heavy 1: not shown
# heavy 2: not shown
# light: B1 light
# notes: as for B4
# B20: GpH7-A5/GpH7-B3 variant L328_04F/GpL16-k0 (antibody, human IgG1, kappa)
# heavy 1: not shown
# heavy 2: not shown
# light: B1 light
# notes: as for B4
# B21: GpH7-A5/GpH7-B3 variant N325_09D/GpL16-k0 (antibody, human IgG1, kappa)
# heavy 1: not shown
# heavy 2: not shown
# light: B1 light
# notes: as for B4
# Biological target: T1, FcγRIIb extracellular domain with …
# Assay: SPR (Biacore), relative to GpH7-A5/GpH7-B3/GpL16-k0 = 100
row,He/Con_2b,Binder
1,108 % (control = 100),B1
2,108 % (control = 100),B2
3,123 % (control = 100),B3

# Biological target: T3, FcγRIIIa extracellular domain with C-terminal His tag (human, UniProt P08637 17-208)
# T3 construct: extracellular domain; also called 3a; FcgRIIIa; not shown: His tag at the C terminus
# T3 sequence (P08637 17-208): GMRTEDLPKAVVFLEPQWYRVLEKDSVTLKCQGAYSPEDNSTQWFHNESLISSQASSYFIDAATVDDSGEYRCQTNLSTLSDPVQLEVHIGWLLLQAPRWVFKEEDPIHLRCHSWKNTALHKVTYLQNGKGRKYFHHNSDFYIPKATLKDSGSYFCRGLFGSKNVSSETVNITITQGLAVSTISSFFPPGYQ
# Assay: as above
row,He/Con_3a,Binder
1,96.3 % (control = 100),B1
2,73.5 % (control = 100),B2
3,49.7 % (control = 100),B3

# Biological target: T4, FcγRIa (human, UniProt P12314 16-292)
# T4 construct: extracellular domain; Soluble extracellular domain with C-terminal His tag, used as analyte in Biacore; also called FcgRI; 1a; not shown: His tag attached to the C terminus
# T4 sequence (P12314 16-292): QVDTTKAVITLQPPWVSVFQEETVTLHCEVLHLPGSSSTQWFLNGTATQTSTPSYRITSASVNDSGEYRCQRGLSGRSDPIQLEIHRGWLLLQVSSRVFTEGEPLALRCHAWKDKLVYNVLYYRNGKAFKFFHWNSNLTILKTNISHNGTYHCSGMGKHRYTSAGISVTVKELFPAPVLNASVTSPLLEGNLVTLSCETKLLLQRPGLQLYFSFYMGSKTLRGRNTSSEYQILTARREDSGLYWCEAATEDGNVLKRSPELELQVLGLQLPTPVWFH
# Assay: SPR (Biacore), antibody captured, FcγR as analyte; relative to GpH7-A5/GpH7-B3/GpL16-k0 = 100
# Description: (§1) The heterodimerized antibodies He Abs in which one of the H chains was introduced with an alteration were assayed for their binding activities to each activating FcγR and inhibitory FcγR according to the method described in Example 4. […] The activating FcγRs in FIGS. 26, 27, 28, and 29 are FcγRIa, FcγRIIa (R), FcγRIIa (H), and FcγRIIIa, respectively.
# (§2) Analysis of interaction between objective antibody and the FcγR was carried out using Biacore T100 (GE Healthcare). HBS-EP+ (GE Healthcare) was used as the running buffer, and the measurement temperature was set to 25° C. Chips produced by immobilizing the antigen peptide by the amine coupling method to a Series S Sencor Chip CM5 (GE Healthcare), or alternatively, chips produced by allowing preliminarily biotinylated antigen peptides to interact with and immobilize onto a Series S Sensor Chip SA (certified) (GE Healthcare) were used. Antibodies of interest were captured onto an antigen peptide-immobilized chip, and allowed to interact to each FcγR diluted with running buffer. To regenerate and repeatedly use the chip, the antibodies captured on the chip were washed off by reacting 10 mM glycine-HCl, pH 1.5.
row,He/Con_1a,Binder
1,99 % of control (=100),B4
2,97.7 % of control (=100),B5
3,98.6 % of control (=100),B6
4,99 % of control (=100),B7
5,98.5 % of control (=100),B8
6,97.5 % of control (=100),B9
7,93.7 % of control (=100),B10
8,93.2 % of control (=100),B11
9,97.1 % of control (=100),B12
10,95.6 % of control (=100),B13
11,99.4 % of control (=100),B14
12,92.2 % of control (=100),B15
13,97.6 % of control (=100),B16
14,94.8 % of control (=100),B17
15,98.7 % of control (=100),B18
16,97.1 % of control (=100),B19
17,97.9 % of control (=100),B20
18,99.9 % of control (=100),B21

# Biological target: T2, FcγRIIb
# Assay: as above
# Description: as §1, §2
row,He/Con_2b,Binder
1,116 % of control (=100),B4
2,113 % of control (=100),B5
3,114 % of control (=100),B6
4,149 % of control (=100),B7
5,144 % of control (=100),B8
6,197 % of control (=100),B9
7,110 % of control (=100),B10
8,143 % of control (=100),B11
9,118 % of control (=100),B12
10,111 % of control (=100),B13
11,160 % of control (=100),B14
12,111 % of control (=100),B15
13,217 % of control (=100),B16
14,171 % of control (=100),B17
15,142 % of control (=100),B18
16,101 % of control (=100),B19
17,219 % of control (=100),B20
18,124 % of control (=100),B21
